Laboratory results: PMC2150586 (The Journal of Cell Biology, 1999)

What was measured:
[1] = target: T1, GSTCdc24 (NH2-terminal 472 amino acids of Cdc24p fused to GST) (S. cerevisiae, UniProt P11433 1-472); assay: pull-down
T1 sequence: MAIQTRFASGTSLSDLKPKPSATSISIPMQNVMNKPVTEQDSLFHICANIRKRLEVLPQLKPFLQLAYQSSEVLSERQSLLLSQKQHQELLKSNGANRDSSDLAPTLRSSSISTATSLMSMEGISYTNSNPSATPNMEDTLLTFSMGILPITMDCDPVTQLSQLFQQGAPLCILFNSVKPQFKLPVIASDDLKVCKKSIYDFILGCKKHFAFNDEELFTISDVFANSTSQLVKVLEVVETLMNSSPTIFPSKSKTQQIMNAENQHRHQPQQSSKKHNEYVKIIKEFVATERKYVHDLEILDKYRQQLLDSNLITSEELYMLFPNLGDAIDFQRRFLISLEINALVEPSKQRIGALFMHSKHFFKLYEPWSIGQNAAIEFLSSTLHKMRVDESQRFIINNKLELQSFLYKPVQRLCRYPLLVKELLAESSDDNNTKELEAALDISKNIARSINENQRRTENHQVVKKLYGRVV

[2] = target: T2, GSTCdc24–MBPFar1 complex, isolated by sequential purification on amylose and glutathione resin (S. cerevisiae, UniProt P11433;P21268); assay: pull-down
T2 sequence 1: T1 sequence
T2 sequence 2: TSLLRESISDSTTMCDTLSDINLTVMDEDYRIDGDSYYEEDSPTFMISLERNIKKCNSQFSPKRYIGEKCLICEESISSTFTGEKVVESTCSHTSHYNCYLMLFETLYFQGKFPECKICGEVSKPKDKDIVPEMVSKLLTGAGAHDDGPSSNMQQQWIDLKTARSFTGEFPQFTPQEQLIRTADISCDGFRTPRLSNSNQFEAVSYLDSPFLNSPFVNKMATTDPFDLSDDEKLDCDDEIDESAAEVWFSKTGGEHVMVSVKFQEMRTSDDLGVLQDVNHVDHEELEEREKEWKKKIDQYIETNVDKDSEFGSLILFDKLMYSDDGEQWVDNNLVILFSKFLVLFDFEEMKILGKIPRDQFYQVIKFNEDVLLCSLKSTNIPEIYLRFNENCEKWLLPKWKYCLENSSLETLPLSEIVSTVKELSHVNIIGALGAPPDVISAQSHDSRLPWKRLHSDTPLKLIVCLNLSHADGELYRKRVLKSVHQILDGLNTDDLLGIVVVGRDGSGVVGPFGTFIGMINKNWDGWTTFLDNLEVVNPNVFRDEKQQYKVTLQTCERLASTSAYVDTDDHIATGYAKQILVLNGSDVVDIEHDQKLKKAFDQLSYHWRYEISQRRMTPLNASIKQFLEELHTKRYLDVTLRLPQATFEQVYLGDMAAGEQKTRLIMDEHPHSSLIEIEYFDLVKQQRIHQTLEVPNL

B1: HASte4p purified from yeast (from HASte4-(TEV)-protein A, released with TEV protease) (natural protein)
chain: MAAHQMDSITYSNNVTQQYIQPQSLQDISAVEDEIQNKIEAARQESKQLHAQINKAKHKIQDASLFQMANKVTSLTKNKINLKPNIVLKGHNNKISDFRWSRDSKRILSASQDGFMLIWDSASGLKQNAIPLDSQWVLSCAISPSSTLVASAGLNNNCTIYRVSKENRVAQNVASIFKGHTCYISDIEFTDNAHILTASGDMTCALWDIPKAKRVREYSDHLGDVLALAIPEEPNSENSSNTFASCGSDGYTYIWDSRSPSAVQSFYVNDSDINALRFFKDGMSIVAGSDNGAINMYDLRSDCSIATFSLFRGYEERTPTPTYMAANMEYNTAQSPQTLKSTSSSYLDNQGVVSLDFSASGRLMYSCYTDIGCVVWDVLKGEIVGKLEGHGGRVTGVRSSPDGLAVCTGSWDSTMKIWSPGYQ
Question: With B1 as the binder, how does the “fold increase of HASte4p bound when MBPFar1 is added” value [1] read?
Answer: ~2 fold

Question: And the “fold HASte4p bound against a similar amount of GSTCdc24 alone” value [2]?
Answer: 2 fold
